Tests used:
Details in all cases: partners not purified
Bbc1 = target: T1, Bbc1 (S. cerevisiae, UniProt P47068 1-1157); test: fluorescence cross-correlation spectroscopy (FCCS); in the cytoplasm of living yeast cells; first-named protein green (3myeGFP or 1myeGFP; eGFP for Don1), second red (3mCherry); self-interaction in diploid strains with one allele of each colour; apparent or effective KD (Kdeff) from single-cell measurements; only Kdeff values < 1000 nM are shown; values for self-interactions are upper limits
T1 construct: Bbc1, S. cerevisiae; also called Bbc1-3myeGFP; Bbc1-3mCherry; source: chromosomally tagged at the endogenous locus, in the cytoplasm of living S. cerevisiae cells
T1 sequence (looked up): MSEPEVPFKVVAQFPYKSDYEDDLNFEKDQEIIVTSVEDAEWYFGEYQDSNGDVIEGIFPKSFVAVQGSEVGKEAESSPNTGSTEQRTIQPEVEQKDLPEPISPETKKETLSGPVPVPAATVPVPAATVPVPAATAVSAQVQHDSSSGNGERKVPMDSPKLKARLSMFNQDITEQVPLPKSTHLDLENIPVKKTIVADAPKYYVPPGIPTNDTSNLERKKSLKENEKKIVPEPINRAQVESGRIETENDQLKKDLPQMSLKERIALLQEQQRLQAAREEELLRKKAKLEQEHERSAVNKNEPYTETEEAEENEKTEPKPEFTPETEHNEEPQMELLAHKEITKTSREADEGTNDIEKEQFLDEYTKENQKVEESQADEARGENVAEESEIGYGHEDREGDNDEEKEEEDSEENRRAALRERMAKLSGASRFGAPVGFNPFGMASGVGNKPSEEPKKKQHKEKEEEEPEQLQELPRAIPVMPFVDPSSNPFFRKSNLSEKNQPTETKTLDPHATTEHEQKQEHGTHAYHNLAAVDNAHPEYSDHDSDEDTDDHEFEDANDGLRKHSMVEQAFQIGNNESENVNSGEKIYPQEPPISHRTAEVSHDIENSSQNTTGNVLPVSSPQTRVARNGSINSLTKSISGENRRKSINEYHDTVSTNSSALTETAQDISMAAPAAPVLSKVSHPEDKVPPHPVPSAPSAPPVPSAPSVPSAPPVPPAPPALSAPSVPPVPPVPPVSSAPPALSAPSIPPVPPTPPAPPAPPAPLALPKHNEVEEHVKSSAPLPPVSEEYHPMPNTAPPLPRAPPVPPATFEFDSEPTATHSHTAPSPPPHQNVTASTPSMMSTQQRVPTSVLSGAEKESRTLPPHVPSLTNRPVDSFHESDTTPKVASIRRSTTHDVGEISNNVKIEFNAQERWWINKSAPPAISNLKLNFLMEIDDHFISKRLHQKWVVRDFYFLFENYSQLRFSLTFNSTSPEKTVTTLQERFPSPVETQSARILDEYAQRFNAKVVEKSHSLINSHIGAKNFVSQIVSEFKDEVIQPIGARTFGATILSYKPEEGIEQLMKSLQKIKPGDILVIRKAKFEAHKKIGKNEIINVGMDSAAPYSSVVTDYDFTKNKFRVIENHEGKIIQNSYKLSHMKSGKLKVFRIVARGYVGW

Sla1 = target: T2, Sla1 (S. cerevisiae, UniProt P32790 1-1244); test: as above
T2 construct: Sla1, S. cerevisiae; also called Sla1-3myeGFP; Sla1-3mCherry; source: chromosomally tagged at the endogenous locus, in the cytoplasm of living S. cerevisiae cells
T2 sequence (looked up): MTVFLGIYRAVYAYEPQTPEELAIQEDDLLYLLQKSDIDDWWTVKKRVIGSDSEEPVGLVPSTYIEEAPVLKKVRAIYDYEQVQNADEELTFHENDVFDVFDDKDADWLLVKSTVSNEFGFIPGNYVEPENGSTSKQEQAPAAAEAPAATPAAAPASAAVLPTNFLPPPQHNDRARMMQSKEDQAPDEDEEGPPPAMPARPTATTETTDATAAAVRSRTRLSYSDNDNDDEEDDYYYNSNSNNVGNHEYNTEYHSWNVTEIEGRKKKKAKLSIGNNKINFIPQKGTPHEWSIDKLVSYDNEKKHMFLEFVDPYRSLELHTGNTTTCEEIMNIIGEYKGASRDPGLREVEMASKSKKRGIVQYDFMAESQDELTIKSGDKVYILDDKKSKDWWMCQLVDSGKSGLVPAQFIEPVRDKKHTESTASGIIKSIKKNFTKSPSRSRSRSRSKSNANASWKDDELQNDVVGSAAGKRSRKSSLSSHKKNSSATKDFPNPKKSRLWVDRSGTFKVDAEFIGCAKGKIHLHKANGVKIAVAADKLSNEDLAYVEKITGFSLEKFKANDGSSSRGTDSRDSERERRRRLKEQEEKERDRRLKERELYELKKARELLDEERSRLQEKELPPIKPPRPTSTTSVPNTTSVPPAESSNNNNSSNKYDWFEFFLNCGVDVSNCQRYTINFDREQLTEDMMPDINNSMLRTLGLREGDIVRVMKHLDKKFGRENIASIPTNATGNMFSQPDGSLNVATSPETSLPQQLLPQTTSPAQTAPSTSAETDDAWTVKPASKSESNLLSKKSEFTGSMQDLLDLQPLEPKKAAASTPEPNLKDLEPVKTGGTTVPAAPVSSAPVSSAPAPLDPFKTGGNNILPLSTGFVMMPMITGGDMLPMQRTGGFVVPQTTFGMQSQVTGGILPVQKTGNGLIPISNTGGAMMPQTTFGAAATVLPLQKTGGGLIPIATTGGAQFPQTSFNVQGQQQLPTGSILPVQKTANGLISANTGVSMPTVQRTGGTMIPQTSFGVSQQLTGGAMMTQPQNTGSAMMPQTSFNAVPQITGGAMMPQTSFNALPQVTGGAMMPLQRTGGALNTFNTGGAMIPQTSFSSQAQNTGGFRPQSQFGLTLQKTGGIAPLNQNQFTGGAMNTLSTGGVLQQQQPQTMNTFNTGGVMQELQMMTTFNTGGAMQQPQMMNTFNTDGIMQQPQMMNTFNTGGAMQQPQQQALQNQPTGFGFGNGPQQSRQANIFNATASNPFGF

Rvs167 = target: T3, Rvs167 (S. cerevisiae, UniProt P39743 1-482); test: as above
T3 construct: Rvs167, amphiphysin-like protein, S. cerevisiae; also called Rvs167-1myeGFP; source: chromosomally tagged at the endogenous locus, in the cytoplasm of living S. cerevisiae cells; not shown: 1myeGFP, C-terminal, kept

Ste11-3mCherry = target: T4, Ste11-3mCherry (S. cerevisiae, UniProt P23561 1-717); test: fluorescence cross-correlation spectroscopy (FCCS); living yeast cells, observation volume in the cytoplasm; one protein tagged with (3)myeGFP/eGFP and the other with 3mCherry in the same strain; apparent (effective) KD; interactions up to ~1 μM detectable
T4 construct: Ste11, S. cerevisiae; negative control of FCCS; source: S. cerevisiae strain Don1-eGFP, Ste11-3mCherry, in living cells
T4 sequence (looked up): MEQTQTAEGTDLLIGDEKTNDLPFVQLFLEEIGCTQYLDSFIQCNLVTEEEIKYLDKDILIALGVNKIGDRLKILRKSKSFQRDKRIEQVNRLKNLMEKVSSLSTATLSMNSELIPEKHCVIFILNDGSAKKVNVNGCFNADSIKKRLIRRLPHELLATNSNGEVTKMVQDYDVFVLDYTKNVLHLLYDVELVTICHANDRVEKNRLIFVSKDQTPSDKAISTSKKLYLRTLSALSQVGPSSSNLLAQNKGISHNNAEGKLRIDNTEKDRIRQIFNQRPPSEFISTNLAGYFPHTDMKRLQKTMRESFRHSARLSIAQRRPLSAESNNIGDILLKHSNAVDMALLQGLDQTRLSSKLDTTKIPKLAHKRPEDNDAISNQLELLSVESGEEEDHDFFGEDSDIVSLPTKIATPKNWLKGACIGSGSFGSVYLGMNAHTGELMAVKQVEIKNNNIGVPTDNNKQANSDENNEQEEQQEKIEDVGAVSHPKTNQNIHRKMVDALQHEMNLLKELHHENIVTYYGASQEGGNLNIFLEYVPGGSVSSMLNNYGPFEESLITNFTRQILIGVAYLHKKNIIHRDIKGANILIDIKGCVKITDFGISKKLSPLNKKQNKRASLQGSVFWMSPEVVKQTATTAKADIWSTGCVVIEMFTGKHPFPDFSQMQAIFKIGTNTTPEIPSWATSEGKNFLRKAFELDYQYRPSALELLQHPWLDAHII

T3 sequence (P39743 whole entry): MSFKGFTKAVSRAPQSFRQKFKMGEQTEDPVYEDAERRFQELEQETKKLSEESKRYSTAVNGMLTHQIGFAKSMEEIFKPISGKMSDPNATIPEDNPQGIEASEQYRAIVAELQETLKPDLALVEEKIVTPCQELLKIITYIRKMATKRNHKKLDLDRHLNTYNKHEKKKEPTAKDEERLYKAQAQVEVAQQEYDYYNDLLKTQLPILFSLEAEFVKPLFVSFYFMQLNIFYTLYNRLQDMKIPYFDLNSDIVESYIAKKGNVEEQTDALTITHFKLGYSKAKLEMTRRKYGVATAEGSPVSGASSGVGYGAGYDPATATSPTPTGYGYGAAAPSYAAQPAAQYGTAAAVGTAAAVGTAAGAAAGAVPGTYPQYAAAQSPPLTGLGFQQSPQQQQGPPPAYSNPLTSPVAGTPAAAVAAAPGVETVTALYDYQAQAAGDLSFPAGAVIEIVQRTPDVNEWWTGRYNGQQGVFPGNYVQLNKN

B1: Bzz1 (natural protein, S. cerevisiae, UniProt P38822 1-633, looked up)
chain: MSADLSIGNEIKDSFKETHKWVQNNLKWLKDIEQFYRERAKLEKDYSERLSRLSAEYFNKKSSTSVPISVGDTPTTTPGSIEAAGVVAWNEILSQTDMISKDHDQLSTDFENHVANQLSGLFTKLDMTLSKINGFNNDMVNKKDNIYHELEKAKKDYDEACSTMEMARNRYTKASNDRNKKKLDEKEMEMNKCKNEYLIKINQANRTKDKYYFQDVPEVLDLLQDVNEAKTLFLNDLWLKAASVENDLGANVSKRLQAANSVVKQNKPSLNTAIFIKHNLKNWKEPQDFVYKPSPVWHDDEKFAVPSSLEVEDLRIKLAKAENDYNSLQDKTQNELSKLSTLNKIKHEMKTNEDNINATKFYDTLKEYLNVVSPFTSHETLKLQAEVQIESIQNNVPEEYDLSTDNIDLSKTKKKSGIFSKFKHNILNVDSKPSSGGSTGNGNGGPLHITSLFNTSRRTRLGSAPNNAGEDSDNNSIRTTSTNNTKKTTQNSSDDGKNKVLYAYVQKDDDEITITPGDKISLVARDTGSGWTKINNDTTGETGLVPTTYIRISSAATVKANDRGPAPEVPPPRRSTLPVRTMEAIYAYEAQGDDEISIDPGDIITVIRGDDGSGWTYGECDGLKGLFPTSYCK
notes: Bzz1, S. cerevisiae; also called Bzz1-3myeGFP; Bzz1-3mCherry; source: chromosomally tagged at the endogenous locus, in the cytoplasm of living S. cerevisiae cells
In the case of B1, the Kd (Bbc1) is reported as 994 nM and the Kd (Sla1) is reported as 976 nM.

B2: Rvs161 (natural protein, S. cerevisiae, UniProt P25343 1-265, looked up)
chain: MSWEGFKKAINRAGHSVIIKNVDKTIDKEYDMEERRYKVLQRAGEALQKEAKGFLDSLRAVTASQTTIAEVISNLYDDSKYVAGGGYNVGNYYLQCVQDFDSETVKQLDGPLRETVLDPITKFSTYFKEIEEAIKKRDHKKQDFDAAKAKVRRLVDKPAKDASKLPRAEKELSLAKDIFENLNNQLKTELPQLVSLRVPYFDPSFEALIKIQLRFCTDGYTRLAQIQQYLDQQSRDDYANGLLDTKIEELLGQMTSLDICALGIK
notes: Rvs161, amphiphysin-like protein, S. cerevisiae; also called Rvs161-1myeGFP; Rvs161-3mCherry; source: chromosomally tagged at the endogenous locus, in the cytoplasm of living S. cerevisiae cells
In the case of B2, the Kd (Rvs167) is reported as 6 nM.

B3: Don1-eGFP (natural protein, S. cerevisiae, UniProt Q05610 1-365, looked up)
chain: MGKKNRKGKENNAAKTSFLKVENIKNTNSGLELPSQDYTNVEEKESSPKTDFPLITKEHVNTKTDSNILDYPTIGDLVSSVEKLCVLKELKIAFPEVDDTLIKAILIASQGVLEPAFNSLLYYSSPEENTDFALPMKPISVEDYSKINVSEILQREIFDDIEDEFSGQGINGSMVISKIESELSSLAEHIGNISTPGSNREVAESTRNVAVAEGHNTILSNEDSILKGKEKGKEEEKEKGEEKGVNSLKGAAVKVVAKSLKNNRIPVTVKRNEPSNNLFDVLNCDESEEEEEQDVETNTSNQERKNQGGNTEVPEAQRDSADRLPAKDDGGYKSAFGTDSCGLFAADAKDEKKQVHPSRQELSFT
notes: Don1, S. cerevisiae; negative control of FCCS; source: S. cerevisiae strain Don1-eGFP, Ste11-3mCherry, in living cells
In the case of B3, the Kd (Ste11-3mCherry) is reported as greater than 1000 nM.
